For 78 variants, self-cleavage results are on record in the RNAGym collection of RNA variant scans (doi:10.7554/elife.80360).

First the molecules themselves.
B1: CPEB3 Ribozyme (parent)
chain: GGGGGCCACAGCAGAAGCGUUCACGUCGCGGCCCCUGUCAGAUUCUGGUGAAUCUGCGAAUUCUGCUGU

The variants in the series derive from B1. Put plainly: self-cleavage, relative activity (ratio to wild type); higher = more cleavage; co-transcriptional.
As for GGGGGCCACAGCAGAAGCGUUCACGUCGCGGCCCCUGUCAGAUUCUGGGCAAUCUGCGAAUUCUGCUGU, the self-cleavage stood at 0.975. In the case of GGGGGCCACAGCAGAAGCGUUCACGUCGCGGCCCCUGUCAGAUUCUGGGUAAUCUGCGAAUUCUGCUGU, the self-cleavage turned out to be 0.993.

As for GGGGGCCACAGCAGAAGCGUUCACGUCGCGGCCCCUGUCAGAUUCUGGGGAAUCAGCGAAUUCUGCUGU, the self-cleavage came to 0.968. For GGGGGCCACAGCAGAAGCGUUCACGUCGCGGCCCCUGUCAGAUUCUGGUAAAUCUGCGAAUUCUGCUGU, the self-cleavage turned out to be 0.999.

With GGGGGCCACAGCAGAAGCGUUCACGUCGCGGCCCCUGUCAGAUUCUGGUCAAUCUGCGAAUUCUGCUGU, the self-cleavage is 0.996. The figure for GGGGGCCACAGCAGAAGCGUUCACGUCGCGGCCCCUGUCAGAUUCUGGGGAAUCUGCGAAUUCUACUGU is 0.97; for GGGGGCCACAGCAGAAGCGUUCACGUCGCGGCCCCUGUCAGAUUCUGGAGAAUCUGCGAACUCUGCUGU it is 0.91; for GGGGGCCACAGCAGAAGCGUUCACGUCGCGGCCCCUGUCAGAUUCUGGUAAAACUGCGAAUUCUGCUGU it is 0.903.

Regarding GGGGGCCACAGCAGAAGCGUUCACGUCGCGGCCCCUGUCAGAUUCUGGAGAAUCUGCGAAUUCUGCCGU, the self-cleavage was found to be 0.99. For GGGGGCCACAGCAGAAGCGUUCACGUCGCGGCCCCUGUCAGAUUCUGGAGAAUCUGCGAAUUCUGCGGU the value was 1.03; for GGGGGCCACAGCAGAAGCGUUCACGUCGCGGCCCCUGUCAGAUUCUGGUAAAUCGGCGAAUUCUGCUGU, 0.858; for GGGGGCCACAGCAGAAGCGUUCACGUCGCGGCCCCUGUCAGAUUCUGGUAAAUCCGCGAAUUCUGCUGU, 0.79. The figure for GGGGGCCACAGCAGAAGCGUUCACGUCGCGGCCCCUGUCAGAUUCUGGAGAAUCGGCGAAUUCUGCUGU is 0.907; for GGGGGCCACAGCAGAAGCGUUCACGUCGCGGCCCCUGUCAGAUUCUGGGGAAUCUGCGAAUUCUGCUGA it is 1.01; for GGGGGCCACAGCAGAAGCGUUCACGUCGCGGCCCCUGUCAGAUUCUGGGGAAUCUGCGAAUUCUGCUGC it is 1.06. For GGGGGCCACAGCAGAAGCGUUCACGUCGCGGCCCCUGUCAGAUUCUGGUAAAUCUGCGAAUUCUGCGGU the value was 1.02; for GGGGGCCACAGCAGAAGCGUUCACGUCGCGGCCCCUGUCAGAUUCUGGUAAAUCUGCGAAUUCUGCCGU, 1.01. For GGGGGCCACAGCAGAAGCGUUCACGUCGCGGCCCCUGUCAGAUUCUGGUAAAUCUCCGAAUUCUGCUGU, the self-cleavage worked out at 0.675. Take GGGGGCCACAGCAGAAGCGUUCACGUCGCGGCCCCUGUCAGAUUCUGGUAAAUCUUCGAAUUCUGCUGU: the self-cleavage amounted to 0.905. As for GGGGGCCACAGCAGAAGCGUUCACGUCGCGGCCCCUGUCAGAUUCUGGCGAAUCUGCGAGUUCUGCUGU, the self-cleavage was 0.955. As for GGGGGCCACAGCAGAAGCGUUCACGUCGCGGCCCCUGUCAGAUUCUGGGGAAUCUGCGUAUUCUGCUGU, the self-cleavage is 0.835.

As for GGGGGCCACAGCAGAAGCGUUCACGUCGCGGCCCCUGUCAGAUUCUGGGGAAUCUGCGGAUUCUGCUGU, the self-cleavage turned out to be 0.96.

For the variant GGGGGCCACAGCAGAAGCGUUCACGUCGCGGCCCCUGUCAGAUUCUGGCGAAUCUGCGAAUUUUGCUGU, the self-cleavage was determined as 0.993. For GGGGGCCACAGCAGAAGCGUUCACGUCGCGGCCCCUGUCAGAUUCUGGGGAAUCUGCGAAUUCUGCCGU the value was 0.964. For GGGGGCCACAGCAGAAGCGUUCACGUCGCGGCCCCUGUCAGAUUCUGGGGAAACUGCGAAUUCUGCUGU the value was 0.918; for GGGGGCCACAGCAGAAGCGUUCACGUCGCGGCCCCUGUCAGAUUCUGGGGAAGCUGCGAAUUCUGCUGU, 0.585; for GGGGGCCACAGCAGAAGCGUUCACGUCGCGGCCCCUGUCAGAUUCUGGGGAACCUGCGAAUUCUGCUGU, 0.98. Turning to GGGGGCCACAGCAGAAGCGUUCACGUCGCGGCCCCUGUCAGAUUCUGGUAAGUCUGCGAAUUCUGCUGU, the self-cleavage was determined as 1. The figure for GGGGGCCACAGCAGAAGCGUUCACGUCGCGGCCCCUGUCAGAUUCUGGUAAAUCUGCGAAUUCUGCUGA is 0.982; for GGGGGCCACAGCAGAAGCGUUCACGUCGCGGCCCCUGUCAGAUUCUGGGGAAUCUGCGAAUUCUGCUCU it is 0.958; for GGGGGCCACAGCAGAAGCGUUCACGUCGCGGCCCCUGUCAGAUUCUGGGGAAUCUGCGAAUUCUGCUAU it is 1. The figure for GGGGGCCACAGCAGAAGCGUUCACGUCGCGGCCCCUGUCAGAUUCUGGUAAAUCUGCGAAUUUUGCUGU is 0.986. Take GGGGGCCACAGCAGAAGCGUUCACGUCGCGGCCCCUGUCAGAUUCUGGCGAAUAUGCGAAUUCUGCUGU: the self-cleavage turned out to be 0.782. The figure for GGGGGCCACAGCAGAAGCGUUCACGUCGCGGCCCCUGUCAGAUUCUGGGGAAUCUGCGAAGUCUGCUGU is 0.991; for GGGGGCCACAGCAGAAGCGUUCACGUCGCGGCCCCUGUCAGAUUCUGGUAAAUCUGCGAAUUCUCCUGU it is 0.683. The figure for GGGGGCCACAGCAGAAGCGUUCACGUCGCGGCCCCUGUCAGAUUCUGGGGAAUCUGCGAAUUCUGAUGU is 0.891. For GGGGGCCACAGCAGAAGCGUUCACGUCGCGGCCCCUGUCAGAUUCUGGGGAAUCUGCCAAUUCUGCUGU the value was 1; for GGGGGCCACAGCAGAAGCGUUCACGUCGCGGCCCCUGUCAGAUUCUGGGGAAUCUGCUAAUUCUGCUGU, 0.957; for GGGGGCCACAGCAGAAGCGUUCACGUCGCGGCCCCUGUCAGAUUCUGGUAAAUCUGCGAAGUCUGCUGU, 0.876. On to GGGGGCCACAGCAGAAGCGUUCACGUCGCGGCCCCUGUCAGAUUCUGGGGGAUCUGCGAAUUCUGCUGU, for which the self-cleavage was determined as 0.981. For GGGGGCCACAGCAGAAGCGUUCACGUCGCGGCCCCUGUCAGAUUCUGGGGUAUCUGCGAAUUCUGCUGU the value was 0.95. The figure for GGGGGCCACAGCAGAAGCGUUCACGUCGCGGCCCCUGUCAGAUUCUGGCGGAUCUGCGAAUUCUGCUGU is 1.03.

Turning to GGGGGCCACAGCAGAAGCGUUCACGUCGCGGCCCCUGUCAGAUUCUGGUACAUCUGCGAAUUCUGCUGU, the self-cleavage was 1.02.

Turning to GGGGGCCACAGCAGAAGCGUUCACGUCGCGGCCCCUGUCAGAUUCUGGCGAAUCUGCGAAUUCAGCUGU, the self-cleavage worked out at 0.89. On to GGGGGCCACAGCAGAAGCGUUCACGUCGCGGCCCCUGUCAGAUUCUGGCGAAUCUGCGAAUUCGGCUGU, for which the self-cleavage worked out at 0.909.

Turning to GGGGGCCACAGCAGAAGCGUUCACGUCGCGGCCCCUGUCAGAUUCUGGUCCAUCUGCGAAUUCUGCUGU, the self-cleavage is 0.876.

Turning to GGGGGCCACAGCAGAAGCGUUCACGUCGCGGCCCCUGUCAGAUUCUGGAGAAUCUGCGAAUUCAGCUGU, the self-cleavage amounted to 0.942. Take GGGGGCCACAGCAGAAGCGUUCACGUCGCGGCCCCUGUCAGAUUCUGGUAAAUCUGCGAAUUCUGAUGU: the self-cleavage amounted to 0.848.

Take GGGGGCCACAGCAGAAGCGUUCACGUCGCGGCCCCUGUCAGAUUCUGGUAAAUCUGCGAAUUCUGGUGU: the self-cleavage turned out to be 0.902.

Consider GGGGGCCACAGCAGAAGCGUUCACGUCGCGGCCCCUGUCAGAUUCUGGCGAAUCGGCGAAUUCUGCUGU, for which the self-cleavage was 0.816. With GGGGGCCACAGCAGAAGCGUUCACGUCGCGGCCCCUGUCAGAUUCUGGCGAAUCUGCGAAUUCUGAUGU, the self-cleavage was found to be 0.77. For GGGGGCCACAGCAGAAGCGUUCACGUCGCGGCCCCUGUCAGAUUCUGGCGAAUCUGCGAAAUCUGCUGU the value was 0.911; for GGGGGCCACAGCAGAAGCGUUCACGUCGCGGCCCCUGUCAGAUUCUGGCGAAUCUGCGAACUCUGCUGU, 0.816. The figure for GGGGGCCACAGCAGAAGCGUUCACGUCGCGGCCCCUGUCAGAUUCUGGCGAAUCUGCGAAUACUGCUGU is 0.98; for GGGGGCCACAGCAGAAGCGUUCACGUCGCGGCCCCUGUCAGAUUCUGGUAAAUCUGCCAAUUCUGCUGU it is 1.

In the case of GGGGGCCACAGCAGAAGCGUUCACGUCGCGGCCCCUGUCAGAUUCUGGUAAAUCUGCGAAUUCUGCUAU, the self-cleavage was 1.03. With GGGGGCCACAGCAGAAGCGUUCACGUCGCGGCCCCUGUCAGAUUCUGGGGAAUCUGCGAAUUCGGCUGU, the self-cleavage was 0.926.

On to GGGGGCCACAGCAGAAGCGUUCACGUCGCGGCCCCUGUCAGAUUCUGGGGAAUCUGCGAAUUCCGCUGU, for which the self-cleavage was found to be 0.932. On to GGGGGCCACAGCAGAAGCGUUCACGUCGCGGCCCCUGUCAGAUUCUGGAGAAUCUGCGAAUGCUGCUGU, for which the self-cleavage is 0.919. With GGGGGCCACAGCAGAAGCGUUCACGUCGCGGCCCCUGUCAGAUUCUGGGGAAUAUGCGAAUUCUGCUGU, the self-cleavage came to 0.907. The figure for GGGGGCCACAGCAGAAGCGUUCACGUCGCGGCCCCUGUCAGAUUCUGGGGAAUGUGCGAAUUCUGCUGU is 0.925. The figure for GGGGGCCACAGCAGAAGCGUUCACGUCGCGGCCCCUGUCAGAUUCUGGUAAAUCUGCGCAUUCUGCUGU is 0.806. For GGGGGCCACAGCAGAAGCGUUCACGUCGCGGCCCCUGUCAGAUUCUGGUAAAUCUGCGAAUUCCGCUGU the value was 0.874; for GGGGGCCACAGCAGAAGCGUUCACGUCGCGGCCCCUGUCAGAUUCUGGUAAAUCUGCGAAUUCGGCUGU, 0.892. With GGGGGCCACAGCAGAAGCGUUCACGUCGCGGCCCCUGUCAGAUUCUGGUAAAUCUGAGAAUUCUGCUGU, the self-cleavage amounted to 0.448. For GGGGGCCACAGCAGAAGCGUUCACGUCGCGGCCCCUGUCAGAUUCUGGUAAAUCUGUGAAUUCUGCUGU the value was 0.356; for GGGGGCCACAGCAGAAGCGUUCACGUCGCGGCCCCUGUCAGAUUCUGGAGAAUCUGCGAAUUCUGCUGA, 0.976. GGGGGCCACAGCAGAAGCGUUCACGUCGCGGCCCCUGUCAGAUUCUGGAGAAUCUGCGAAUUCUGCUGC: the self-cleavage was determined as 1.06. For the variant GGGGGCCACAGCAGAAGCGUUCACGUCGCGGCCCCUGUCAGAUUCUGGCAAAUCUGCGAAUUCUGCUGU, the self-cleavage was determined as 0.981. For GGGGGCCACAGCAGAAGCGUUCACGUCGCGGCCCCUGUCAGAUUCUGGGGAAUCUGCGACUUCUGCUGU the value was 0.338; for GGGGGCCACAGCAGAAGCGUUCACGUCGCGGCCCCUGUCAGAUUCUGGCGAAUCUGCCAAUUCUGCUGU, 0.993; for GGGGGCCACAGCAGAAGCGUUCACGUCGCGGCCCCUGUCAGAUUCUGGGGAGUCUGCGAAUUCUGCUGU, 0.94. For GGGGGCCACAGCAGAAGCGUUCACGUCGCGGCCCCUGUCAGAUUCUGGUAAAUUUGCGAAUUCUGCUGU the value was 0.992. Turning to GGGGGCCACAGCAGAAGCGUUCACGUCGCGGCCCCUGUCAGAUUCUGGUAAAUGUGCGAAUUCUGCUGU, the self-cleavage was 0.848. The figure for GGGGGCCACAGCAGAAGCGUUCACGUCGCGGCCCCUGUCAGAUUCUGGCGAAUCUACGAAUUCUGCUGU is 0.935; for GGGGGCCACAGCAGAAGCGUUCACGUCGCGGCCCCUGUCAGAUUCUGGCGAAUCUUCGAAUUCUGCUGU it is 0.948.

For the variant GGGGGCCACAGCAGAAGCGUUCACGUCGCGGCCCCUGUCAGAUUCUGGCGAAUCUGCGAAUUCUGCUGU, the self-cleavage turned out to be 0.988. The figure for GGGGGCCACAGCAGAAGCGUUCACGUCGCGGCCCCUGUCAGAUUCUGGGGAAUCUGCGAAUUCUGCUGU is 0.996.
